{"source": "patent US20240052006A1", "about": "(UNIVERSITY OF CHICAGO, published 2024)", "binders": {"B1": {"name": "Murine FcRn recombinant protein (Acro Biosystems) (receptor, mouse)", "chain 1": "SETRPPLMYHLTAVSNPSTGLPSFWATGWLGPQQYLTYNSLRQEADPCGAWMWENQVSWYWEKETTDLKSKEQLFLEALKTLEKILNGTYTLQGLLGCELASDNSSVPTAVFALNGEEFMKFNPRIGNWTGEWPETEIVANLWMKQPDAARKESEFLLNSCPERLLGHLERGRRNLEWKEPPSMRLKARPGNSGSSVLTCAAFSFYPPELKFRFLRNGLASGSGNCSTGPNGDGSFHAWSLLEVKRGDEHHYQCQVEHEGLAQPLTVDLDSSARSS", "chain 2": "IQKTPQIQVYSRHPPENGKPNILNCYVTQFHPPHIEIQMLKNGKKIPKVEMSDMSFSKDWSFYILAHTEFTPTETDTYACRVKHASMAEPKTVYWDRDM", "notes": "Bought from Acro Biosystems and immobilised by amine coupling on a C1 chip; also called Recombinant mouse FcRn; neonatal Fc receptor"}}, "target": "T1, mouse plasma-derived SA (mouse SA, Sigma-Aldrich) (mouse, UniProt P07724 25-608)", "T1 construct": "The SA in the SPR assay was bought (Sigma-Aldrich, plasma-derived, without IL-4); It is not tied to the bought lot by name; also called mouse serum albumin; MSA", "assay": "SPR (Biacore X100): murine FcRn immobilised by amine coupling on a C1 chip, mouse SA flowed at 4000 to 250 nM in pH 5.8 running buffer; Langmuir fit", "method": "Murine FcRn recombinant protein (Acro Biosystems) was immobilized via amine coupling on a C1 chip (GE Healthcare) for ˜200 resonance units (RU) according to the manufacturer's instructions. SA-IL4 or SA (mouse SA, Sigma-Aldrich) was flowed at decreasing concentrations in the running buffer (0.01 M monobasic anhydrous sodium phosphate, pH 5.8, 0.15 M NaCl) at 30 μl/min. The sensor chip was regenerated with PBS, pH 7.4 for every cycle. Specific bindings of SA fusion proteins to FcRn were calculated by comparison to a non-functionalized channel used as a reference. Experimental results were fitted with Langmuir binding kinetics using BIAevaluation software (GE Healthcare)."}
{"binder": "B1", "values": [{"measurement": "Kd", "value": 294, "unit": "nM"}, {"measurement": "koff", "value": 0.0011, "unit": "s⁻¹"}, {"measurement": "kon", "value": 3700, "unit": "M⁻¹ s⁻¹"}]}
